Data: the supplement of paper PMC10567573

B1: TRIM29 (parent)
chain: FAEKGELRKSIFSESRKPTVSIME

Variants of: B1
Assay: protein stability index of a GFP-peptide fusion (GPS, HEK-293T) (PSI 1-6); higher = more stable
Conditions: c terminus: a fixed tail appended
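Further: lentivirally expressed fusions sorted by FACS into six bins by GFP to DsRed ratio, PSI derived from sequencing read proportions per bin multiplied by bin number.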

Protein stability index of substitutions, site by site:
E6: L 2.78; V 1.93; G 1.47; P 2.78; H 2.38; T 1.56; F 2.65; A 1.77; D 1.44; C 2.57; K 1.85; Q 1.45; M 1.78; R 1.64; W 2.02
G5: A 1.99; E 1.69; Q 2.02; N 1.93; C 1.15; I 2.31; P 2.46; D 1.8; W 2.04; L 2.37; V 1.66; K 1.78; T 1.64; R 1.7
S13: H 1.64; E 2.71; M 2.76; D 2.42; F 2.01; N 1.75; A 2.1; T 1.87; G 1.7; C 1.67; K 2.21; V 2.58; R 2.19; P 3.18; Y 2.08; L 1.84
V20: G 1.7; L 1.23; H 2.64; E 2.79; C 2.13; T 1.77; D 2.02; A 1.42; W 2.58; P 1.89; F 1.97; I 2.12; S 2.34; K 2.08; Q 2.2
S10: D 2.12; E 2.12; F 2.32; K 2.17; L 1.47; N 1.76; A 1.91; I 2.48; R 1.35; P 2.27; W 2.35; T 1.82
E14: F 1.85; P 3.31; K 1.99; L 1.91; T 2.63; H 2.05; R 1.49; C 2.21; A 2.01; Y 1.7; D 1.54; I 2.32; S 2.31
F12: A 2.74; M 3.49; L 2.41; T 3.54; W 1.14; V 3.1; P 3.96; S 3.69; C 2.96; R 3.66; Y 2.04; G 2.59; D 4.25; N 3.43; E 3.84
R16: L 1.99; A 1.49; S 1.8; N 1.5; P 1.96; F 1.96; W 2.29; Y 1.4; K 2.35; H 1.74; D 2.04; I 1.78; V 2.18; E 1.3; M 2.02; Q 1.6
F1: G 3.89; A 4.35; P 3.9; C 2.68; K 4.27; M 3.73; S 3.58; D 4.75; V 3.94; L 3.14; R 3.66; N 4.34; I 3.63; W 2.6; T 3.95
K9: M 2.02; L 3.5; N 1.87; H 2.16; E 1.84; P 2.23; F 1.39; C 3.57; A 1.77; I 3.48; T 1.93; Y 2.36; D 1.85
T19: G 1.61; C 2.39; M 2.36; D 2.15; Y 2; H 1.75; V 2.56; S 2.74; F 1.59; I 1.17; K 2.58; Q 2.26; R 2.02; L 1.6; E 1.8
E24: R 1.3; L 2.98; P 2.23; F 2.22; T 1.88; M 2.73; I 2.79; D 2.41; W 2.17; A 2.12; V 2.33; H 3.14; C 2.07; G 2.2
P18: M 2.1; Q 1.34; G 2.59; K 1.41; V 2.5; C 2.21; N 2.59; E 2.35; W 2.83; L 1.98; I 2.06; T 1.85; Y 2.79
A2: K 3.44; L 2.38; C 1.66; D 3.76; N 2.91; P 2.59; Q 3.44; H 2.07; W 2.74; V 2.1; Y 2.88; I 1.89; F 2.52
I22: R 1.34; Q 1.55; P 2.48; L 2.17; V 1.86; N 1.74; W 1.67; E 2.06; T 2.04; A 2; H 3.02; S 1.78; K 2.31; C 2.68; D 1.99; F 1.79; G 1.85
S15: Q 2.1; Y 2.04; G 1.8; T 2.31; H 1.52; I 1.56; D 2.26; M 2.04; A 1.75; C 1.59; R 1.3; V 2.3; E 2.01; W 2.29; N 1.64
M23: I 1.49; Y 2.2; N 2.38; H 2.56; R 2.22; T 2.22; A 1.47; K 1.66; E 1.56
K4: I 2.1; T 2.14; E 2.33; H 1.75; A 1.87; R 2.08; M 1.39; P 1.8; N 2.53; C 2.24; F 1.77; Q 1.71; G 2.02; Y 2.16
I11: E 3.26; N 3.35; Q 3.33; D 3.69; S 3.09; F 2.74; H 2.97; Y 1.7; R 2.71; G 3.92; K 3.22; V 1.86; W 2.77; P 2.51
S21: V 2.17; T 1.76; H 1.31; I 3.09; N 2.11; W 2.55; M 2.61; K 2.7; F 2.61; C 1.49; Q 3.18; P 1.47; Y 2.15; L 2.05; A 2.12
K17: D 1.65; S 1.82; V 2.46; L 2.86; W 2.22; M 1.33; R 1.53; H 2.11; T 2.12; P 1.54; F 2.05; A 2.43; N 1.39
E3: R 2.27; W 1.83; I 2.43; H 1.66; Y 1.88; A 3.08; V 1.15; D 1.9; M 2.09; P 2.79; C 1.92
L7: S 2.22; W 3.9; G 1.46; Y 2.08; F 2.21; M 2.02; C 2.8; T 2.32; H 2.44; I 2.18; K 1.7; A 2.25; Q 2.31
R8: G 1.56; V 2.74; K 2.23; D 2.55; A 3.85; C 2.08; P 1.89; I 2.81; L 2.32; T 2; W 2.85; N 2.44; F 2.64; Y 2.54
